From US20220177587A1, “METHODS AND USES OF VARIANT CD80 FUSION PROTEINS AND RELATED CONSTRUCTS” (Alpine Immune Sciences, Inc., priority 2018, published 2022)

Experiments:
huPD-L1 = huPD-L1 (Homo sapiens, UniProt Q9NZQ7); experiment: Flow binding to CHO cells stably expressing PD-L1; set-up: huCTLA4 and huPD-L1, full-length mammalian surface expression constructs were generated; expressed in transfected cells; host or cells: CHO cells, lentiviral transduction, sorted to >98% purity; settings: for PD-L1 MFI at 33.3 nM: CHO cells stably expressing PD-L1; for PD-L1 Fold change to WT CD80: MFI at 33.3 nM relative to CD80 WT IgV-Fc; for Ratio of PDL1:CD28: ratio of MFI at 33.3 nM
Procedure: (§1) Binding of selected immunomodulatory fusion proteins to cognate binding partners was assessed. […] Cells were sorted in a Bio-Rad S3 Cell Sorter (Bio-Rad Corp., USA) to >98% purity. Jurkat/IL2 reporter cells, which endogenously express CD28, were used to detect binding to CD28.
(§2) For staining and analysis by flow cytometry, 100,000 cells of appropriate transfected cells were plated in 96-well round bottom plates. Cells were spun down and resuspended in staining buffer (phosphate buffered saline (PBS), 1% bovine serum albumin (BSA), and 0.1% sodium azide) for 20 minutes to block non-specific binding. […] Primary staining was performed on ice for 45 minutes, before washing cells in staining buffer twice. Phycoerythrin (PE)-conjugated anti-human Fc (Jackson ImmunoResearch, USA) was diluted 1:150, added to cells and incubated another 30 minutes on ice. Cells were then washed twice with 150 μL/well stain buffer, fixed in 2% formaldehyde/PBS, and analyzed on Intellicyt flow cytometer (Intellicyt Corp., USA). PE Mean Fluorescence Intensity (MFI) was calculated for each cell type with FlowJo Version 10 software (FlowJo LLC, USA).
(§3) Binding assays were carried out to assess the specificity and affinity of multivalent proteins to cell-expressed CTLA-4, CD28, and PD-L1 counter structures.
(§4) The EC50 for binding also was determined.

CD28 [1] = target: T1, CD28 (Homo sapiens, UniProt P10747); experiment: Jurkat/IL2 + CHO/OKT3 +/- PD-L1 reporter assay: PD-L1-dependent CD28 costimulation; type: cell-based; set-up: host or cells: Jurkat cells expressing an IL-2-luciferase reporter; settings: Jurkat/IL2 + CHO/OKT3/PD-L1
Procedure: Jurkat cells were then plated at 50 μL/well for a total of 100,000 cells per well.
To each well, 25 μL of test protein was added to the Jurkat cells. […] The Jurkat cells with test or control proteins were incubated for 15 minutes at room temperature. CHO-derived artificial antigen presenting cells (aAPC) displaying transduced cell surface anti-CD3 single chain Fv (OKT3) (i.e., no PD-L1), or OKT3 and PD-L1 (i.e., +PD-L1), were brought to 0.8×10^6 cells/mL, and 25 μL of cells were added to each well, bringing the final volume of each well to 100 μL. […] Jurkat cells and CHO cells were incubated for 5 hours at 37 degrees Celsius in a humidified 5% CO2 incubation chamber. Plates were then removed from the incubator and acclimated to room temperature for 15 minutes. 100 μL of a cell lysis and luciferase substrate solution (BioGlo luciferase reagent, Promega) were added to each well and the plates were incubated on an orbital shaker for 10 minutes. Luminescence was measured with a 1 second per well integration time using a BioTek Cytation luminometer, and a relative luminescence value (RLU) was determined for each test sample.

huCTLA4 = huCTLA4 (Homo sapiens, UniProt P16410); experiment: Flow binding to CHO cells stably expressing CTLA4; set-up: huCTLA4 and huPD-L1, full-length mammalian surface expression constructs were generated; expressed in transfected cells; host or cells: CHO cells, lentiviral transduction, sorted to >98% purity; settings: for CTLA4 MFI at 33.3 nM: CHO cells stably expressing CTLA4; for CTLA4 Fold change to WT CD80: MFI at 33.3 nM relative to CD80 WT IgV-Fc
Procedure: as §1, §2, §3, §4

CD28 [2] = target: T1, CD28; experiment: Flow binding to Jurkat/IL2 reporter cells (CD28); set-up: host or cells: Jurkat cells expressing an IL-2-luciferase reporter; settings: for CD28 Fold change to WT CD80: MFI at 33.3 nM relative to CD80 WT IgV-Fc
Procedure: as §1, §2, §3, §4

[3] = Table E20, Jurkats (CD28), 33.3 nM
[4] = Table E23, CD80 IgV-Fc (inert) at 33.3 nM
[5] = Table E23, CD80 IgV-Fc (inert) at 33.3 nM, Jurkat (CD28)

huPD-L1, sequence (Q9NZQ7 19-290): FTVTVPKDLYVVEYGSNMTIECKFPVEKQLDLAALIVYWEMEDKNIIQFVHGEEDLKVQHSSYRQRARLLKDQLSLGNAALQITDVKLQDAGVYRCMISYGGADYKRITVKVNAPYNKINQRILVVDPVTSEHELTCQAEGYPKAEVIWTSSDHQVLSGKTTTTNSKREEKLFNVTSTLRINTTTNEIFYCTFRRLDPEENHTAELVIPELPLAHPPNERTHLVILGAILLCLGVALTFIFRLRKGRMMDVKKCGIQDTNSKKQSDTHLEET
huCTLA4, sequence (P16410 36-223): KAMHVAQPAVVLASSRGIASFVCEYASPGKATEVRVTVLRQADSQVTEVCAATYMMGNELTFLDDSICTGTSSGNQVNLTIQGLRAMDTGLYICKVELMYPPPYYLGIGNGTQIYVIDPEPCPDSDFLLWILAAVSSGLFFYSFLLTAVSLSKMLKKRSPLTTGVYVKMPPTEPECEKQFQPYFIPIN

PD-L1 MFI at 33.3 nM (huPD-L1; Table E20, 33.3 nM) | PD-L1 Fold change to WT CD80 (huPD-L1; Table E20) [fold] | Ratio of PDL1:CD28 (huPD-L1; Table E20) | Fold Increase over WT CD80-IgV-Fe (CD28 [1]; Table E22, 5.0 nM) [fold] | Relative Luciferase Units (RLU), CD80 Conc 5.0 nM (CD28 [1]; Table E22, CD80 Conc 5.0 nM) [RLU] | CTLA4 MFI at 33.3 nM (huCTLA4; Table E20, 33.3 nM) | CTLA4 Fold change to WT CD80 (huCTLA4; Table E20) [fold] | CD28 MFI at 33.3 nM (CD28 [2]; [3]) | CD28 Fold change to WT CD80 (CD28 [2]; Table E20) [fold] | PD-L1 MFI at 33.3 nM (huPD-L1; [4]) | PD-L1 Fold change to WT CD80 (huPD-L1; Table E23) | Ratio of PDL1:CD28 (huPD-L1; Table E23) | Fold Increase over WT CD80-IgV-Fe (CD28 [1]; Table E24, 5.0 nM) | Relative Luciferase Units (RLU), CD80 Conc 5.0 nM (CD28 [1]; Table E24, 5.0 nM) [RLU] | CTLA4 MFI at 33.3 nM (huCTLA4; [4]) | CTLA4 Fold change to WT CD80 (huCTLA4; Table E23) | CD28 MFI at 33.3 nM (CD28 [2]; [5]) | CD28 Fold change to WT CD80 (CD28 [2]; Table E23) | Substance
16887 | 387.3 | 44.6 | 2.42 | 944 | 19353 | 14.2 | 379 | 8.6 | – | – | – | – | – | – | – | – | – | H18Y/A26E/E35D/M47L/A71G
– | – | – | – | – | – | – | – | – | 52151 | 316.1 | 7.7 | 4.8 | 825 | 17165 | 12.4 | 6792 | 66.6 | H18Y/E35D/M47V/V68M/A71G/D90G
14822 | 340.0 | 13.8 | 2.45 | 956 | −100 | −0.1 | 1075 | 24.5 | – | – | – | – | – | – | – | – | – | H18Y/A26E/E35D/A71G/D90G
– | – | – | – | – | – | – | – | – | 33436 | 202.6 | 7.1 | 5.0 | 857 | 23763 | 17.2 | 4731 | 46.4 | H18A/A26P/E35D/M47L/V68M/A71G/D90G
– | – | – | – | – | – | – | – | – | 36284 | 219.9 | 7.4 | 6.2 | 1054 | 21360 | 15.4 | 4913 | 48.2 | H18A/A26N/E35D/M47L/V68M/A71G/D90G
27872 | 639.3 | 10.4 | 2.50 | 974 | 18305 | 13.5 | 2683 | 61.1 | – | – | – | – | – | – | – | – | – | H18Y/A26E/V68M/A71G/D90G
23594 | 541.1 | 737.3 | 2.76 | 1075 | 28649 | 21.1 | 32 | 0.7 | – | – | – | – | – | – | – | – | – | H18Y/A26E/M47L/V68M/D90G
